In publication PMC3985669 one finds binding data, which are given here for two sequences.

Data set [1] concerns the target Hfq (UniProt P0A6X3). Nature of the data set: EMSA. Background: Mobility shift assays separate free from complexed probe on a gel.
Data set [2] addresses Hfq (UniProt P0A6X3). Nature of the data set: footprinting.

Sequence of Hfq (P0A6X3 2-102): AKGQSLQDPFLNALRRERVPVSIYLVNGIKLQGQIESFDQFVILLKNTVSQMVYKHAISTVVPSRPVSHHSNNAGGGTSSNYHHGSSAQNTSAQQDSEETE

Turning to “GGAUGUAAUCCAUUAGUUUUAUAUUUUACCCAUUUAGGGCUGAUUUAUUACUACACACAGCAGUGCAACAUCUGUCAGUACUUCUGGUGCUUCUAUUUUAGAGGCAGCUGUCAGGUGUGCGAUCAAUAAAAAAAGCGGGGUUUCAUCAUGUUUAAUGAAGUCCAUAGUAUUCAUGGUCAUACAUUAUUGUUGAUCACUAAAUCUUCUUUGCAGGCG [RydC + csgD mRNA215 duplex]”, in the data set with Hfq [1], the binding entry is listed as “binds”.
Regarding “GGAUGUAAUCCAUUAGUUUUAUAUUUUACCCAUUUAGGGCUGAUUUAUUACUACACACAGCAGUGCAACAUCUGUCAGUACUUCUGGUGCUUCUAUUUUAGAGGCAGCUGUCAGGUGUGCGAUCAAUAAAAAAAGCGGGGUUUCAUCAUGUUUAAUGAAGUCCAUAGUAUUCAUGGUCAUACAUUAUUGUUGAUCACUAAAUCUUCUUUGCAGGCG [csgD mRNA215]”, the binding entry with Hfq [2] and with Hfq [1] was “binds” in each case.
